Sequences and labels used below:
B1: Twister Ribozyme (parent)
chain: AACACUGCCAAUGCCGGUCCCAAGCCCGGAUAAAAGUGGAGGGGGCGG

The variants in the data set derive from B1. In words: self-cleavage, relative activity (ratio to wild type); higher = more cleavage; co-transcriptional.
For the variant AACACUGCCAAUGCCGGUCCCAAGCCCGGAUAAAAGUGGAGGGGCCCG, the self-cleavage came out at 0.427. AACACUGCCAAUGCCGGUCCCAAGCCCGGAUAAAAGUGGAGGGGCCUG: the self-cleavage amounted to 0.177.

Consider AACACUGCCAAUGCCGGUCCCAAGCCCGGAUAAAAGUGGAGGCGGUGG, for which the self-cleavage was 0.214.

AACACUGCCAAUGCCGGUCCCAAGCCCGGAUAAAAGUGGAGGGUGCCG: the self-cleavage came out at 0.523. In the case of AACACUGCCAAUGCCGGUCCCAAGCCCGGAUAAAAGUGGAGGGUGCAG it was 0.758. As to AACACUGCCAAUGCCGGUCCCAAGCCCGGAUAAAAGUGGAGGGGGAGC, the self-cleavage stood at 0.995.

For AACACUGCCAAUGCCGGUCCCAAGCCCGGAUAAAAGUGGAGGGGACAG, the self-cleavage amounted to 0.71. AACACUGCCAAUGCCGGUCCCAAGCCCGGAUAAAAGUGGAGGUGCCGG: the self-cleavage amounted to 0.271.

Turning to AACACUGCCAAUGCCGGUCCCAAGCCCGGAUAAAAGUGGAGCGGGCGA, the self-cleavage turned out to be 0.516. Turning to AACACUGCCAAUGCCGGUCCCAAGCCCGGAUAAAAGUGGAGCGGGCGC, the self-cleavage came to 0.606. In the case of AACACUGCCAAUGCCGGUCCCAAGCCCGGAUAAAAGUGGAGUAGGCGG it was 0.129; in that of AACACUGCCAAUGCCGGUCCCAAGCCCGGAUAAAAGUGGAGGCGACGG, 0.294; in that of AACACUGCCAAUGCCGGUCCCAAGCCCGGAUAAAAGUGGAGGAGGCCG, 0.208. For the variant AACACUGCCAAUGCCGGUCCCAAGCCCGGAUAAAAGUGGAGGAGGCAG, the self-cleavage worked out at 0.237. Take AACACUGCCAAUGCCGGUCCCAAGCCCGGAUAAAAGUGGAGGAGGAGG: the self-cleavage was 0.334. For the variant AACACUGCCAAUGCCGGUCCCAAGCCCGGAUAAAAGUGGAGGCGGCAG, the self-cleavage was 0.138. For AACACUGCCAAUGCCGGUCCCAAGCCCGGAUAAAAGUGGAGGCGGCCG, the self-cleavage is 0.159.

As for AACACUGCCAAUGCCGGUCCCAAGCCCGGAUAAAAGUGGAGGCGGCUG, the self-cleavage was determined as 0.13. For the variant AACACUGCCAAUGCCGGUCCCAAGCCCGGAUAAAAGUGGAGGGCGCGA, the self-cleavage came out at 0.289.

As to AACACUGCCAAUGCCGGUCCCAAGCCCGGAUAAAAGUGGAGGGAUCGG, the self-cleavage was found to be 1.11. AACACUGCCAAUGCCGGUCCCAAGCCCGGAUAAAAGUGGAGGGGUUGG: the self-cleavage is 0.669. For AACACUGCCAAUGCCGGUCCCAAGCCCGGAUAAAAGUGGAGGGGUGGG, the self-cleavage was found to be 0.52. AACACUGCCAAUGCCGGUCCCAAGCCCGGAUAAAAGUGGAGGCGGCGC: the self-cleavage is 0.219.

For the variant AACACUGCCAAUGCCGGUCCCAAGCCCGGAUAAAAGUGGAGGCGGCGA, the self-cleavage was 0.198.

Consider AACACUGCCAAUGCCGGUCCCAAGCCCGGAUAAAAGUGGAGUGGGAGG, for which the self-cleavage was determined as 0.162.

Consider AACACUGCCAAUGCCGGUCCCAAGCCCGGAUAAAAGUGGAGGGCGCAG, for which the self-cleavage amounted to 0.371.

In the case of AACACUGCCAAUGCCGGUCCCAAGCCCGGAUAAAAGUGGAGGGCGCCG, the self-cleavage is 0.353.

In the case of AACACUGCCAAUGCCGGUCCCAAGCCCGGAUAAAAGUGGAGGGCGUGG, the self-cleavage was found to be 0.732.

Turning to AACACUGCCAAUGCCGGUCCCAAGCCCGGAUAAAAGUGGAGGGAGUGG, the self-cleavage amounted to 0.988. In the case of AACACUGCCAAUGCCGGUCCCAAGCCCGGAUAAAAGUGGAGGGAGGGG, the self-cleavage was 0.895. Take AACACUGCCAAUGCCGGUCCCAAGCCCGGAUAAAAGUGGAGGGAGAGG: the self-cleavage worked out at 0.878. Regarding AACACUGCCAAUGCCGGUCCCAAGCCCGGAUAAAAGUGGAGGGUCCGG, the self-cleavage came out at 0.609.

AACACUGCCAAUGCCGGUCCCAAGCCCGGAUAAAAGUGGAGUGAGCGG: the self-cleavage was determined as 0.524. Take AACACUGCCAAUGCCGGUCCCAAGCCCGGAUAAAAGUGGAGGCUGCGG: the self-cleavage came to 0.455. In the case of AACACUGCCAAUGCCGGUCCCAAGCCCGGAUAAAAGUGGAGGGGUCAG it was 0.771; in that of AACACUGCCAAUGCCGGUCCCAAGCCCGGAUAAAAGUGGAGGGGGGGA, 1; in that of AACACUGCCAAUGCCGGUCCCAAGCCCGGAUAAAAGUGGAGUGGGCGC, 0.571.

As to AACACUGCCAAUGCCGGUCCCAAGCCCGGAUAAAAGUGGAGGGGGAAG, the self-cleavage was determined as 1.03.

Consider AACACUGCCAAUGCCGGUCCCAAGCCCGGAUAAAAGUGGAGGGGGACG, for which the self-cleavage is 0.952. With AACACUGCCAAUGCCGGUCCCAAGCCCGGAUAAAAGUGGAGGGGGAUG, the self-cleavage came to 0.832. With AACACUGCCAAUGCCGGUCCCAAGCCCGGAUAAAAGUGGAGGGUGCGA, the self-cleavage worked out at 0.717. For the variant AACACUGCCAAUGCCGGUCCCAAGCCCGGAUAAAAGUGGAGGGAGCAG, the self-cleavage turned out to be 0.867. In the case of AACACUGCCAAUGCCGGUCCCAAGCCCGGAUAAAAGUGGAGGGAGCGU, the self-cleavage stood at 1.08. As for AACACUGCCAAUGCCGGUCCCAAGCCCGGAUAAAAGUGGAGGGAGCGC, the self-cleavage is 1.11. As to AACACUGCCAAUGCCGGUCCCAAGCCCGGAUAAAAGUGGAGGAGCCGG, the self-cleavage amounted to 0.434. As for AACACUGCCAAUGCCGGUCCCAAGCCCGGAUAAAAGUGGAGGGGCCGA, the self-cleavage amounted to 0.628. As for AACACUGCCAAUGCCGGUCCCAAGCCCGGAUAAAAGUGGAGGGGCCGC, the self-cleavage is 0.89.

Take AACACUGCCAAUGCCGGUCCCAAGCCCGGAUAAAAGUGGAGGGGCCGU: the self-cleavage was 0.577. Take AACACUGCCAAUGCCGGUCCCAAGCCCGGAUAAAAGUGGAGGGGACGC: the self-cleavage was found to be 1.02. In the case of AACACUGCCAAUGCCGGUCCCAAGCCCGGAUAAAAGUGGAGGGCUCGG it was 0.483; in that of AACACUGCCAAUGCCGGUCCCAAGCCCGGAUAAAAGUGGAGGGCCCGG, 0.54. For the variant AACACUGCCAAUGCCGGUCCCAAGCCCGGAUAAAAGUGGAGGGGCUGG, the self-cleavage was determined as 0.544. Take AACACUGCCAAUGCCGGUCCCAAGCCCGGAUAAAAGUGGAGGGGGGCG: the self-cleavage came to 0.981.

Take AACACUGCCAAUGCCGGUCCCAAGCCCGGAUAAAAGUGGAGUGGGCAG: the self-cleavage was 0.242.

Source of the values: the RNAGym collection of RNA variant scans (doi:10.7554/elife.80360).
